The supplement of paper PMC9170038

System: MS2 coat protein
Assay: apparent KD of MS2 coat protein; designed switch direction (-1 OFF switch, 1 ON switch): 1; higher = weaker reporter binding
How it was run: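 For each design, the apparent KD is the median over clusters of curves fitted to normalised cluster fluorescence. Clusters held RNA switches with common flanks, transcribed on Illumina chips by stalled E. coli RNA polymerase. These were titrated with SNAP-549-labelled MS2 coat protein, doubling from 0.7 or 1.5 nM to 3 µM, without input, with 200 uM small-molecule ligand, or with an oligonucleotide input.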

[1] = input ligand: microRNA oligo, concentration not stated

Sequence | apparent KD of MS2 coat protein (input ligand: FMN 200 uM) | apparent KD of MS2 coat protein [1] | apparent KD of MS2 coat protein (input ligand: none)
GCUAGAAUAAAAGCCAACAUGAGGAUCACCCAUGUAUGUUGGCAGGAUAUCGUUUGCAAAGCAAACGAGAAGGGCCAUACUAGC [Mat - Same State NG 3 - JL Mod - D23] (Eterna round: R96, puzzle: Same State NG 3) | 45.1 nM | 109 nM | 117 nM
GCUAGAAUUAAAGCCAACAUGAGGAUCACCCAUGUAUGUUGGCAGGAUAUCGUUUGCUUUGCAAACGAGAAGGGCCAUACUAGC [JL SSNG3 1.08] (Eterna round: R96, puzzle: Same State NG 3) | 47.7 nM | 98.1 nM | 134 nM
GCUAGAAUUAACGCCUACAUGAGGAUCACCCAUGUAUGUAGGCAGGAUAUCGUUUGCAAAGCAAACGAGAAGGGCCUUACUAGC [Mat - Same State NG 3 - JL Mod - D31] (Eterna round: R96, puzzle: Same State NG 3) | 27.3 nM | 31 nM | 46.5 nM
GCUAGGAUAUGAAGAGGAUCACCCUUUAGAAGGAGCAUUAGCUAGGAUAUGAAGAGGAUCACCCUUUAGAAGGAGCACUACUCU [pwkr ssNG3 DX 2xF5 +2xFMN.7] (Eterna round: R96, puzzle: Same State NG 3) | 531 nM | 286 nM | 292 nM
GCUAGGAUAUGACGAGGAUCACCCGUUAGAAGGAGCUUCAGCUAGGAUAUGACGAGGAUCACCCGUUAGAAGGAGCACUACUCU [pwkr ssNG3 DX 2xF5 +2xFMN.8] (Eterna round: R96, puzzle: Same State NG 3) | 205 nM | 90.9 nM | 91.4 nM
GCUAGGAUUAAAGCCAACAUGAGGAUCACCCAUGUAUGUUGGUAGGAUAUCGUUUGCAAAGCAAACGAGAAGGGCUAACCUAGC [Mat - Same State NG 3 - JL Mod - D67] (Eterna round: R96, puzzle: Same State NG 3) | 88.3 nM | 73 nM | 92.6 nM
GCUAGUAUAAUUGUCAACAUGAGGAUCACCCAUGUAUGUUGGCAGGAUAUCGUUUGCAAAGCAAACGAGAAGGGCUAAACUAGC [Mat - Same State NG 3 - JL Mod - D11] (Eterna round: R96, puzzle: Same State NG 3) | 61.3 nM | 106 nM | 171 nM
GCUCGAAUCAGAACCAACAUGAGGAUCACCCAUGUAUGUUGGUAGGAUAUCGUUUCUAAGAGAAACGAGAAGGGCCGAACGAGC [SameState NG3 #5] (Eterna round: R96, puzzle: Same State NG 3) | 224 nM | 132 nM | 212 nM
GCUCGAAUCAGAACCAACAUGAGGAUCACCCAUGUGUGUUGGUAGGAUAUCGUUUCUAAGGGAAACGAGAAGGGCCGAACGAGC [SameState NG3 #7] (Eterna round: R96, puzzle: Same State NG 3) | 46.9 nM | 49.4 nM | 89.1 nM
GCUCGACGUAUUGUUUACAUGAGGAUCACCCAUGUAGGUGCGGAGGAUAUCUACGUGUUUCAUGUAGAGAAGGUCGUGUCGAGC [SameState NG3 #91] (Eterna round: R96, puzzle: Same State NG 3) | 24.5 nM | 59.2 nM | 106 nM
GCUCGACUGAUGGCCUACAUGAGGAUCACCCAUGUGACUGGGCAGGAUAUCUAGAUGCAGGAUGUAGAGAAGGGCCUGUCGAGC [SameState NG3 #43] (Eterna round: R96, puzzle: Same State NG 3) | 589 nM | 201 nM | 426 nM
GCUCGAUGAAUGUCCUACAUGAGGAUCACCCAUGUACGUGGGCAGGAUAUUUACAUGCAGAGUGUAGAGAAGGGCCCAUCGAGC [SameState NG3 #62] (Eterna round: R96, puzzle: Same State NG 3) | 16.1 nM | 28.6 nM | 49.1 nM
GCUCGAUGAGCGGUUUACAUGAGGAUCACCCAUGUAAAUGGGCAGGAUAUUUACGUGCUUUGUGUAGAGAAGGGCCCAUCGAGC [SameState NG3 #75] (Eterna round: R96, puzzle: Same State NG 3) | 18.1 nM | 47.4 nM | 112 nM
GCUCGAUGAGCUGUCUACAUGAGGAUCACCCAUGUAGAUGCGGAGGAUAUUUACGUGCUUUAUGUAGAGAAGGCCGUAUCGAGC [SameState NG3 #79] (Eterna round: R96, puzzle: Same State NG 3) | 12 nM | 15.6 nM | 17.9 nM
GCUCGAUGAGCUGUCUACAUGAGGAUCACCCAUGUAGAUGGGCAGGAUAUUUACGUGCUUUGUGUAGAGAAGGGCCCAUCGAGC [SameState NG3 #77] (Eterna round: R96, puzzle: Same State NG 3) | 35 nM | 144 nM | 267 nM
GCUCGAUGAGCUGUUUACAUGAGGAUCACCCAUGUAGAUGCGGAGGAUAUCUACGUGCUUUAUGUAGAGAAGGCCGUAUCGAGC [SameState NG3 #81] (Eterna round: R96, puzzle: Same State NG 3) | 14.2 nM | 22.2 nM | 28.4 nM
GCUCGAUGUGCUGUCUACAUGAGGAUCACCCAUGUAGAUGCGGAGGAUAUCUACGUGCUUUAUGUAGAGAAGGUCGUAUCGAGC [SameState NG3 #84] (Eterna round: R96, puzzle: Same State NG 3) | 52.5 nM | 50.2 nM | 90.4 nM
GCUCGAUGUGUUGUCUACAUGAGGAUCACCCAUGUAGAUGCGGAGGAUAUCUACGUGCUUUAUGUAGAGAAGGUCGUAUCGAGC [SameState NG3 #85] (Eterna round: R96, puzzle: Same State NG 3) | 18 nM | 23.7 nM | 34.3 nM
GCUCGCACGAUGACCCACAUGAGGAUCACCCAUGUGUGUGGGUAGGAUAUCUAUAUUAAGGAUUUAGAGAAGGGCCGAGCGAGC [SameState NG3 #22] (Eterna round: R96, puzzle: Same State NG 3) | 450 nM | 419 nM | 578 nM
GCUCGCGACGCAGGAUAUGGGUGCCUGUACAUGAGGAUCACCCAUGUUAAGGGACGGAAAACGAACCAGAAGGGCGUCACGAGC [Ceusdian] (Eterna round: R96, puzzle: Same State NG 2) | 68.1 nM | 132 nM | 1120 nM
GCUCGCGGCACAGGAUAUGGGUGCCUGUACAUGAGGAUCACCCAUGUUAAGGGACGGAUUACGAACCAGAAGGGUGUGGCAAGC [Reonisma] (Eterna round: R96, puzzle: Same State NG 2) | 95.5 nM | 294 nM | 1060 nM
GCUCGGAUGAUGGCCCACAUGAGGAUCACCCAUGUGCGUGGGCAGGAUAUCUAGAUUAAGGAUGUAGAGAAGGGCCUACCGAGC [SameState NG3 #33] (Eterna round: R96, puzzle: Same State NG 3) | 543 nM | 140 nM | 179 nM
GCUCGGCUGAUGGCCCACAUGAGGAUCACCCAUGUGAGUGGGCAGGAUAUCUAGAUUAAGGAUGUAGAGAAGGGCCUGCCGAGC [SameState NG3 #36] (Eterna round: R96, puzzle: Same State NG 3) | 2290 nM | 19 nM | 559 nM
GCUCGUAUGAUGACCGACAUGAGGAUCACCCAUGUGUGUUGGUAGGAUAUCUAUAUUAAGGAUAUAGAGAAGGGCCGAACGAGC [SameState NG3 #16] (Eterna round: R96, puzzle: Same State NG 3) | 22.4 nM | 23.6 nM | 30.6 nM
GCUCGUGGUAUUGUCUACAUGAGGAUCACCCAUGUAGGUGCGGAGGAUAUCUACGUGUCUCAUGUAGAGAAGGUCGUCACGAGC [SameState NG3 #99] (Eterna round: R96, puzzle: Same State NG 3) | 61.2 nM | 174 nM | 38.7 nM
GCUGCAAGGGCAGGAUAUGGGUCCAAAGCGCAAGUGCGCUUUGGUACAUGAGGAUCACCCAUGUCCCAGAAGGGCCCAAACAGC [Bientierqu] (Eterna round: R96, puzzle: Same State NG 2) | 15.5 nM | 87.2 nM | 121 nM
GCUGCAAGGGCAGGAUAUGGGUCCAAAGCGCAAGUGCGCUUUGGUACAUGAGGAUCACCCAUGUCCCAGAAGGGCCCAUGCGGC [Edenbiatar] (Eterna round: R96, puzzle: Same State NG 2) | 15.5 nM | 78.4 nM | 123 nM
GCUGCAAUAAACGCCUACAUGAGGAUCACCCAUGUAUGUAGGCAGGAUAUCGUUUGCAAAGCAAACGAGAAGGGCCGUAGUAGC [Mat - Same State NG 3 - JL Mod - D35] (Eterna round: R96, puzzle: Same State NG 3) | 26.3 nM | 44.6 nM | 66.1 nM
GGAAACAGAGGAGGAUAUGCAGAGGAUCACCCUGUAGAAGGCCUCGAAAGGAGGAUAUGCAGAGGAUCACCCUGUAGAAGGCCU [pwkr ssNG DX.26] (Eterna round: R96, puzzle: Same State NG 1) | 72.1 nM | 156 nM | 208 nM
